Literature values in paper PMC5337525.

Molecular target: calmodulin (UniProt P0DP23)

- Kd: 7 µM
Substance: β-arrestin 1 (from UniProt P17870)
